Experimental findings from the supplement of paper PMC11502859 are described below.
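Also: lentiviral eGFP-IRES-mCherry reporter pool sorted by FACS 96 h post-transduction, gated on mCherry-high cells, Illumina read counts normalized per million, median across four biological replicates.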

For the series, the system named is HEK293T. Nature of the series: median enrichment of reporter reads in eGFP-reduced (low/intermediate) vs eGFP-high sorted cells (eGFP-extension fusion abundance) (ratio); higher = stronger loss of eGFP-fusion protein abundance (more destabilising extension).
Turning to LNGSI [PHF20L1], the median enrichment came out at 0.416.

LNGVQAQRPLGVMTKCSCTTVLKELRLLPFF [DYTN]: the median enrichment is 8.97.

For LNI [WDR78], the median enrichment stood at 0.527.

Turning to LNILKCKASTV [TRAPPC6B], the median enrichment is 1.63.

For the substance “LNKLKMDLFFFNGNRTLCQITSYRNNSLFLTNLVLPYTSTGF [PTEN]”, the median enrichment worked out at 9.05.

With LNLKKSFQ [CCDC160], the median enrichment was 1.05.

LNLNGHYKLSNST [ARMC4]: the median enrichment stood at 1.8.

For LNQFLGLTAM [BTN2A1], the median enrichment came to 12.4.

Regarding LNQS [CFH], the median enrichment is 0.385.

As for LNQSVFPACAELLI [ZP4], the median enrichment was 3.4.

Take “LNREKKLQVVLKEMQLFKSLCIVLILFTMCNHLENGYFYNLNNKQVLS [C8orf34]”: the median enrichment is 2.33.

For LNRKKSPK [MDN1], the median enrichment was 0.34.

For LNRQDRLWERGSFHKRKMVGLFPE [C10orf53], the median enrichment was found to be 7.23.

As to LNWD [PIK3C3], the median enrichment was 0.342.

Regarding LPAAPGTRGYTPVSLRE [KRTAP12-3], the median enrichment is 0.986.

“LPAASLHAPRSSLHGSPGRWQTMLRLHQGHRGAEGPMGEERRALLGKVGFLDPRDKLFRCHNVEESTWGTTVLVQVGLGKCTS [IGHMBP2]”: the median enrichment is 3.92.

As to “LPAIDNVAGTSASPLQPSNFPGTLLSAPEEGAVVSCCLWAPASSAVLGSVLLASVNNKATVCSGICGFVHSVTCHLHRALMAG [MCM5]”, the median enrichment turned out to be 5.35.

With “LPARPHGQPVASCRPHSPGTVSCLCVRPPLPCLLRHPPPHIHTQRFDKLLVFNE [SMTN]”, the median enrichment was 7.46.

For “LPCSSTVTTRQALLSAEGVIPGPPVCVIVTMPCRDILEATHGWRNPEPPPQPTWLFVDSRRQGCAWLLTCC [PFKFB4]”, the median enrichment turned out to be 11.1.

With LPDFGAAEAT [ELP6], the median enrichment came out at 0.429.

For LPEKLCQLQGGSDFRKVV [HERPUD2], the median enrichment was 0.919.

As for LPF [SDHD], the median enrichment was 0.443.

As to “LPFSGLQPPPGWKPWGPSGLGGAASRERAPFSGLPPQHAAS [CDR2L]”, the median enrichment worked out at 5.38.

In the case of LPGAGGWTC [PTH1R], the median enrichment worked out at 1.02.

Consider “LPGLRRTLWTECLRTSYSLMLNPFHFLSFHSWVDSDHKDSWGFPGRTLHLMEHLNCRFCFPPLPHVIIKL [LCE2B]”, for which the median enrichment is 6.36.

Turning to “LPGPGFAPAPASGPPGSRCGGCGPRAGARRRRRRREGARPAGRNRSDSRQEPGTEPGTEQQVRPGPPRLGADSDALGGSRKGG [NKX6-2]”, the median enrichment turned out to be 6.82.

“LPHHTPDHQESQGCCFATHQHRFAQKLCPRLGRSYFKKTWFSWSRWLTPVIPALWEAKPDGS [COG7]”: the median enrichment stood at 8.59.

On to LPLARSLPSVHRSQFHRWRRCLR [PIPOX], for which the median enrichment is 10.5.

As to “LPLKTVPLRDPKTLGIDTWASGRAQPWAGGLLRTQRCAWNHS [SLC4A3]”, the median enrichment was 31.

With LPLPFTLT [ATF6B], the median enrichment is 3.98.

For the substance “LPLVLYSNLFGNDSSTHRTACVRAHTHTHTHTHTHH [GNAO1]”, the median enrichment was 3.16.

“LPMTLSWGPPARPGTFLPNPQTHDSLPHRLPQRPPTHFILSGHPSDLDPPVRAFKAPNSGTRSAPLPRPRAGNFSLPDPALLF [SCRT2]”: the median enrichment is 6.07.

As to LPNFTSSGESLTLNQRPSTALAPQTSP [ABCB5], the median enrichment amounted to 0.355.

On to LPPLSPECNKHQIPCVK [POLR2I], for which the median enrichment was determined as 2.23.

For the substance LPR [ATXN2L], the median enrichment is 0.876.

Consider “LPRPQPGPRTSGHRWHQPLLQDHQSGAPRTLACVP [GSG1L]”, for which the median enrichment came to 17.3.

On to LPRWFQPRHTLVPT [DNAAF5], for which the median enrichment is 4.04.

Consider “LPSASGSVVGQALIPALWGGSLYSLFGGMVTEFIVEPFSVQMLWLQIRNPTSPG [GOLGA3]”, for which the median enrichment was found to be 4.27.

Regarding LPSESGGKTPPSLCILNH [UGT3A1], the median enrichment was 0.835.

Consider “LPSRSTATQVYLPLPSNPFPRAIFISPNKRAPRK [HRC]”, for which the median enrichment came out at 11.1.

For the substance “LPSTCPWGQEHPRPQKRERKGQKKEEKKNVQKDFRSSHSYF [TOB2]”, the median enrichment came to 0.26.

Regarding “LPVGCFTSTPAPPASNAHSTPNTTPCPTNAHSRAW [C1QB]”, the median enrichment was determined as 1.02.

On to LPVGVAGSSLQIWPARCLAGWTG [DOLPP1], for which the median enrichment came out at 8.63.

With LPVRPAQPGPGPRFSTRTVHPASRSL [DLGAP3], the median enrichment was determined as 17.6.

On to LQCTIFSHLYYFFSACIT [HAO1], for which the median enrichment amounted to 1.93.

LQGPLDL [OR56A3]: the median enrichment was found to be 0.31.

In the case of LQIYVCYN [OR8I2], the median enrichment stood at 6.8.

On to LQNPNLELPMLLSYKHTDSGYS [ATP11C], for which the median enrichment came to 1.23.

As to LQPIYLFISLWGLTH [GUCY1A1], the median enrichment was 15.3.

With LQPTWSTRAGP [KRT36], the median enrichment came to 0.897.

In the case of “LRAGEPHILTAPGLYPGHSRDRLVVEPGGAKKASCGPRTAAVRLPMSQAVCVVTAPLSVHLQQRQRRRLPPGRFSLFIC [ZMYND19]”, the median enrichment came out at 6.85.

Consider LRASPRRDGKKIYKYISF [CYP2U1], for which the median enrichment amounted to 7.5.

Take LRCQLPSEQAGGICHTAPPLG [SMPD4]: the median enrichment was determined as 2.92.

As for LRGPSPPPMAGG [Degron KLHDC2], the median enrichment was found to be 5.1.

As for LRICRRFPFMKH [CUL4A], the median enrichment came to 8.83.

For LRISQG [ESRRB], the median enrichment was found to be 1.67.

Turning to LRKLILLIFMTNLYICF [RGS18], the median enrichment stood at 14.1.

Take LRLIIYQEC [PKIB]: the median enrichment worked out at 6.92.

With LRLQCLLRRKIKFTSSKVTLEDRALGMSFFF [OR2C3], the median enrichment came to 4.08.

LRLSISRDMVLTQQFPVMAKCSI [IL13RA2]: the median enrichment turned out to be 41.5.

Regarding LRMKQLLSGPALPHSCASSALLSSQT [LCN12], the median enrichment was 30.4.

In the case of LRMWKITCFYLELFNLKIRNCFLLLSQ [CCDC34], the median enrichment was determined as 26.1.

For the substance LRPGHPDVLLKGAPRAGRGL [CBLC], the median enrichment was determined as 1.91.

“LRPHKHYGRSVGPQHGLPSGRPVLPEEGPACWPGACRHC [ZGPAT]”: the median enrichment is 6.53.

Turning to “LRQRQHQCRACPAALSLHALRAPLLLRYPFETSGAGPLPASLTIPRPLSHLGLGKPDSTQDQGSHEARRLRGSCPFSYSRA [SHOX2]”, the median enrichment was 5.48.

Turning to LRRGGKREKMERGAGNGGERTSKETEMKT [ZSWIM9], the median enrichment is 1.53.

As to “LRRGPGSLRACEEHLLPKNVWFFFLFCFRFSSFEEQREIKRRPPGRGAFSQRLGRFPKSRVPASPAEFTSVPEAAVSSS [BIN1]”, the median enrichment came out at 7.66.

For LRRIQICVCVCVCVCVCVCVCVSLCLCIG [KIFC1], the median enrichment was determined as 24.3.

In the case of “LRRRMSLRAPSWSGPRHPGTSALPPPALLHHMSS [ADHFE1]”, the median enrichment is 18.5.

Consider LRRVLSNLFFFFLYLHLQPQLSHFSP [MTMR11], for which the median enrichment worked out at 11.6.

As for LRSLI [BAMBI], the median enrichment was determined as 7.1.

Turning to “LRSRRDEAASPFSASPPAQGPSGGACRTCPGTVAPQACLSCRVPMAWSLHLTDWSPLPDSHFQKLGGRDTWKTPVTSFLLRA [DPM2]”, the median enrichment came to 4.89.

With LRVAFFLL [GTF2A1], the median enrichment was determined as 6.78.
